Results taken from patent publication US20250320281A1.

Key:
[1] = target: HIV-1 Env of pseudovirus isolate MGRM-G-001 (HIV-1); test: cell-based or functional assay
[2] = target: HIV-1 Env of pseudovirus isolate MGRM-G-004 (HIV-1); test: cell-based or functional assay
[3] = target: HIV-1 Env of pseudovirus isolate MGRM-G-006 (HIV-1); test: cell-based or functional assay
[4] = target: HIV-1 Env of pseudovirus isolate MGRM-G-009 (HIV-1); test: cell-based or functional assay
[5] = target: HIV-1 Env of pseudovirus isolate MGRM-G-011 (HIV-1); test: cell-based or functional assay
[6] = target: HIV-1 Env of pseudovirus isolate MGRM-G-013 (HIV-1); test: cell-based or functional assay
[7] = target: HIV-1 Env of pseudovirus isolate MGRM-G-014 (HIV-1); test: cell-based or functional assay
[8] = target: HIV-1 Env of pseudovirus isolate MGRM-G-015 (HIV-1); test: cell-based or functional assay
[9] = target: HIV-1 Env of pseudovirus isolate MGRM-G-016 (HIV-1); test: cell-based or functional assay
[10] = target: HIV-1 Env of pseudovirus isolate MGRM-G-017 (HIV-1); test: cell-based or functional assay
[11] = target: HIV-1 Env of pseudovirus isolate MGRM-G-019 (HIV-1); test: cell-based or functional assay
[12] = target: HIV-1 Env of pseudovirus isolate MGRM-G-027 (HIV-1); test: cell-based or functional assay
[13] = target: envelope of aMLV pseudovirus (negative control); test: cell-based or functional assay
[14] = target: WT JR-FL gp120 (HIV-1); test: ELISA, antigen-coated wells
[15] = target: HIV-1 92RW020 Env (pseudovirus) (HIV-1); test: cell-based or functional assay
[16] = target: HIV-1 92TH021 Env (pseudovirus) (HIV-1); test: cell-based or functional assay
[17] = target: HIV-1 92UG005 Env (pseudovirus) (HIV-1); test: cell-based or functional assay
[18] = target: HIV-1 92UG024 Env (pseudovirus) (HIV-1); test: cell-based or functional assay
[19] = target: HIV-1 93IN905 Env (pseudovirus) (HIV-1); test: cell-based or functional assay
[20] = target: HIV-1 94UG103 Env (pseudovirus) (HIV-1); test: cell-based or functional assay
[21] = target: HIV-1 APV6 Env (pseudovirus) (HIV-1); test: cell-based or functional assay
[22] = target: HIV-1 CMU02 Env (pseudovirus) (HIV-1); test: cell-based or functional assay
[23] = target: HIV-1 JRCSF Env (pseudovirus) (HIV-1) (UniProt P20871); test: cell-based or functional assay
[24] = target: HIV-1 MGRM-A-010 Env (pseudovirus) (HIV-1); test: cell-based or functional assay
[25] = target: HIV-1 MGRM-C-026 Env (pseudovirus) (HIV-1); test: cell-based or functional assay
[26] = target: HIV-1 MGRM-C-027 Env (pseudovirus) (HIV-1); test: cell-based or functional assay
[27] = target: HIV-1 MGRM-C-028 Env (pseudovirus) (HIV-1); test: cell-based or functional assay
[28] = target: HIV-1 MGRM-D-018 Env (pseudovirus) (HIV-1); test: cell-based or functional assay
[29] = target: HIV-1 NL43 Env (pseudovirus) (HIV-1); test: cell-based or functional assay

5329_C19 (PGT-136) (antibody), sequence (VH): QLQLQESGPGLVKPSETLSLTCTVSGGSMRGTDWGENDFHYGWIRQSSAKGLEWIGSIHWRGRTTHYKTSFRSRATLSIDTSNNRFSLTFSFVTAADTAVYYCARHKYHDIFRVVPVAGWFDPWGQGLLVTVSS
5329_C19 (PGT-136) (antibody), sequence (VL): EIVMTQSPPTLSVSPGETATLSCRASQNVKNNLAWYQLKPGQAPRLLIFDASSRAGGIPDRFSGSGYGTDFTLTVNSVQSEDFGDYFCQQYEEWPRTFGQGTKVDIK

For 5114_A19 (PGT-128) (antibody), the IC50 (µg/mL), pseudovirus neutralization [1] was 0.019 µg/mL, the IC50 (µg/mL), pseudovirus neutralization [2] was > 50 µg/mL and the IC50 (µg/mL), pseudovirus neutralization [3] was > 50 µg/mL. For the same substance, the IC50 (µg/mL), pseudovirus neutralization [4] was > 50 µg/mL, the IC50 (µg/mL), pseudovirus neutralization [5] was 8.21 µg/mL and the IC50 (µg/mL), pseudovirus neutralization [6] was 0.995 µg/mL. The IC50 (µg/mL), pseudovirus neutralization [7] was 0.004 µg/mL, the IC50 (µg/mL), pseudovirus neutralization [8] was > 50 µg/mL and the IC50 (µg/mL), pseudovirus neutralization [9] was > 50 µg/mL. It also gave an IC50 (µg/mL), pseudovirus neutralization [10] of 0.319 µg/mL, an IC50 (µg/mL), pseudovirus neutralization [11] of 0.01 µg/mL and an IC50 (µg/mL), pseudovirus neutralization [12] of 0.313 µg/mL. For the same substance, the IC50 (µg/mL), pseudovirus neutralization [13] was > 50 µg/mL and the EC50 [14] was 0.1 µg/mL.

5329_C19 (PGT-136) (antibody) was tested, and the neutralization IC50 (pseudovirus) [15] was 0.738 µg/mL, the IC50 (neutralizing activity, pseudovirus) [16] was > 10 µg/mL and the IC50 (neutralizing activity, pseudovirus) [17] was > 10 µg/mL. The IC50 (neutralizing activity, pseudovirus) [18] was 0.0915 µg/mL, the IC50 (neutralizing activity, pseudovirus) [19] was 0.0135 µg/mL and the IC50 (neutralizing activity, pseudovirus) [20] was > 10 µg/mL. For the same substance, the IC50 (neutralizing activity, pseudovirus) [21] was > 10 µg/mL, the IC50 (neutralizing activity, pseudovirus) [22] was > 10 µg/mL and the IC50 (µg/mL), pseudovirus neutralization [1] was 8.11 µg/mL. For the same substance, the IC50 (µg/mL), pseudovirus neutralization [2] was > 50 µg/mL, the IC50 (µg/mL), pseudovirus neutralization [3] was > 50 µg/mL and the IC50 (µg/mL), pseudovirus neutralization [4] was > 50 µg/mL. For the same substance, the IC50 (µg/mL), pseudovirus neutralization [5] was > 50 µg/mL, the IC50 (µg/mL), pseudovirus neutralization [6] was > 50 µg/mL and the IC50 (µg/mL), pseudovirus neutralization [7] was > 50 µg/mL. The IC50 (µg/mL), pseudovirus neutralization [8] was > 50 µg/mL, the IC50 (µg/mL), pseudovirus neutralization [9] was > 50 µg/mL and the IC50 (µg/mL), pseudovirus neutralization [10] was > 50 µg/mL. For the same substance, the IC50 (µg/mL), pseudovirus neutralization [11] was 44.3 µg/mL, the IC50 (µg/mL), pseudovirus neutralization [12] was 45.2 µg/mL and the IC50 (neutralizing activity, pseudovirus) [23] was > 10 µg/mL. For the same substance, the IC50 (neutralizing activity, pseudovirus) [24] was > 10 µg/mL, the IC50 (neutralizing activity, pseudovirus) [25] was 0.0065 µg/mL and the IC50 (neutralizing activity, pseudovirus) [26] was > 10 µg/mL. The IC50 (neutralizing activity, pseudovirus) [27] was > 10 µg/mL, the IC50 (neutralizing activity, pseudovirus) [28] was > 10 µg/mL and the IC50 (neutralizing activity, pseudovirus) [29] was > 10 µg/mL. The IC50 (µg/mL), pseudovirus neutralization [13] was > 50 µg/mL and the EC50 [14] was 0.2 µg/mL.

For 5147_N06 (PGT-130) (antibody), the Neutralization by PGT-130, IC50 [15] was 0.014 µg/mL, the Neutralization by PGT-130, IC80 [15] was 0.508 µg/mL and the Neutralization by PGT-130, IC90 [15] was 3.68 µg/mL. For the same substance, the Neutralization by PGT-130, IC95 [15] was > 10 µg/mL, the neutralization IC50 (pseudovirus) [15] was 0.014 µg/mL and the Neutralization by PGT-130, IC50 [16] was 0.0082 µg/mL. For the same substance, the Neutralization by PGT-130, IC80 [16] was 0.0261 µg/mL, the Neutralization by PGT-130, IC90 [16] was 0.0513 µg/mL and the Neutralization by PGT-130, IC95 [16] was 0.0963 µg/mL. For the same substance, the neutralization IC50 (pseudovirus) [16] was 0.0082 µg/mL, the Neutralization by PGT-130, IC50 [17] was 0.474 µg/mL and the Neutralization by PGT-130, IC80 [17] was > 10 µg/mL. For the same substance, the Neutralization by PGT-130, IC90 [17] was > 10 µg/mL, the Neutralization by PGT-130, IC95 [17] was > 10 µg/mL and the neutralization IC50 (pseudovirus) [17] was 0.474 µg/mL. The Neutralization by PGT-130, IC50 [18] was > 10 µg/mL, the Neutralization by PGT-130, IC80 [18] was > 10 µg/mL and the Neutralization by PGT-130, IC90 [18] was > 10 µg/mL. The Neutralization by PGT-130, IC95 [18] was > 10 µg/mL, the neutralization IC50 (pseudovirus) [18] was > 10 µg/mL and the Neutralization by PGT-130, IC50 [19] was 0.0182 µg/mL. It also gave a Neutralization by PGT-130, IC80 [19] of 0.272 µg/mL, a Neutralization by PGT-130, IC90 [19] of 1.31 µg/mL and a Neutralization by PGT-130, IC95 [19] of 5.48 µg/mL. The neutralization IC50 (pseudovirus) [19] was 0.0182 µg/mL, the Neutralization by PGT-130, IC50 [20] was 0.635 µg/mL and the Neutralization by PGT-130, IC80 [20] was > 10 µg/mL. For the same substance, the Neutralization by PGT-130, IC90 [20] was > 10 µg/mL, the Neutralization by PGT-130, IC95 [20] was > 10 µg/mL and the neutralization IC50 (pseudovirus) [20] was 0.635 µg/mL. The Neutralization by PGT-130, IC50 [21] was > 10 µg/mL, the Neutralization by PGT-130, IC80 [21] was > 10 µg/mL and the Neutralization by PGT-130, IC90 [21] was > 10 µg/mL. The Neutralization by PGT-130, IC95 [21] was > 10 µg/mL, the neutralization IC50 (pseudovirus) [21] was > 10 µg/mL and the Neutralization by PGT-130, IC50 [22] was > 10 µg/mL. The Neutralization by PGT-130, IC80 [22] was > 10 µg/mL, the Neutralization by PGT-130, IC90 [22] was > 10 µg/mL and the Neutralization by PGT-130, IC95 [22] was > 10 µg/mL. The neutralization IC50 (pseudovirus) [22] was > 10 µg/mL, the IC50 (µg/mL), pseudovirus neutralization [1] was 0.0198 µg/mL and the IC50 (µg/mL), pseudovirus neutralization [2] was > 50 µg/mL. For the same substance, the IC50 (µg/mL), pseudovirus neutralization [3] was > 50 µg/mL, the IC50 (µg/mL), pseudovirus neutralization [4] was > 50 µg/mL and the IC50 (µg/mL), pseudovirus neutralization [5] was > 50 µg/mL. For the same substance, the IC50 (µg/mL), pseudovirus neutralization [6] was > 50 µg/mL, the IC50 (µg/mL), pseudovirus neutralization [7] was 2.23 µg/mL and the IC50 (µg/mL), pseudovirus neutralization [8] was > 50 µg/mL. The IC50 (µg/mL), pseudovirus neutralization [9] was > 50 µg/mL, the IC50 (µg/mL), pseudovirus neutralization [10] was > 50 µg/mL and the IC50 (µg/mL), pseudovirus neutralization [11] was 27.9 µg/mL. It also gave an IC50 (µg/mL), pseudovirus neutralization [12] of 4.14 µg/mL, a Neutralization by PGT-130, IC50 [23] of 0.0089 µg/mL and a Neutralization by PGT-130, IC80 [23] of 0.0317 µg/mL. For the same substance, the Neutralization by PGT-130, IC90 [23] was 0.0669 µg/mL, the Neutralization by PGT-130, IC95 [23] was 0.134 µg/mL and the neutralization IC50 (pseudovirus) [23] was 0.0089 µg/mL. For the same substance, the Neutralization by PGT-130, IC50 [24] was 0.0054 µg/mL, the Neutralization by PGT-130, IC80 [24] was 0.0251 µg/mL and the Neutralization by PGT-130, IC90 [24] was 0.0643 µg/mL. The Neutralization by PGT-130, IC95 [24] was 0.164 µg/mL, the neutralization IC50 (pseudovirus) [24] was 0.0054 µg/mL and the Neutralization by PGT-130, IC50 [25] was 0.0173 µg/mL. The Neutralization by PGT-130, IC80 [25] was 0.263 µg/mL, the Neutralization by PGT-130, IC90 [25] was 1.32 µg/mL and the Neutralization by PGT-130, IC95 [25] was 6.13 µg/mL. For the same substance, the neutralization IC50 (pseudovirus) [25] was 0.0173 µg/mL, the Neutralization by PGT-130, IC50 [26] was 0.0052 µg/mL and the Neutralization by PGT-130, IC80 [26] was 0.0318 µg/mL. For the same substance, the Neutralization by PGT-130, IC90 [26] was 0.106 µg/mL, the Neutralization by PGT-130, IC95 [26] was 0.464 µg/mL and the neutralization IC50 (pseudovirus) [26] was 0.0052 µg/mL. For the same substance, the Neutralization by PGT-130, IC50 [27] was > 10 µg/mL, the Neutralization by PGT-130, IC80 [27] was > 10 µg/mL and the Neutralization by PGT-130, IC90 [27] was > 10 µg/mL. The Neutralization by PGT-130, IC95 [27] was > 10 µg/mL, the neutralization IC50 (pseudovirus) [27] was > 10 µg/mL and the Neutralization by PGT-130, IC50 [28] was 0.0378 µg/mL. For the same substance, the Neutralization by PGT-130, IC80 [28] was 0.289 µg/mL, the Neutralization by PGT-130, IC90 [28] was 2.31 µg/mL and the Neutralization by PGT-130, IC95 [28] was > 10 µg/mL. The neutralization IC50 (pseudovirus) [28] was 0.0378 µg/mL, the Neutralization by PGT-130, IC50 [29] was > 10 µg/mL and the Neutralization by PGT-130, IC80 [29] was > 10 µg/mL. The Neutralization by PGT-130, IC90 [29] was > 10 µg/mL, the Neutralization by PGT-130, IC95 [29] was > 10 µg/mL and the neutralization IC50 (pseudovirus) [29] was > 10 µg/mL. The IC50 (µg/mL), pseudovirus neutralization [13] was > 50 µg/mL and the EC50 [14] was 0.2 µg/mL.
